Assay results reported in IntAct's records for PubMed 24256567.

B1: Tyrosine-protein kinase ZAP-70 (Homo sapiens), P43403 (parent)
chain: MPDPAAHLPFFYGSISRAEAEEHLKLAGMADGLFLLRQCLRSLGGYVLSLVHDVRFHHFPIERQLNGTYAIAGGKAHCGPAELCEFYSRDPDGLPCNLRKPCNRPSGLEPQPGVFDCLRDAMVRDYVRQTWKLEGEALEQAIISQAPQVEKLIATTAHERMPWYHSSLTREEAERKLYSGAQTDGKFLLRPRKEQGTYALSLIYGKTVYHYLISQDKAGKYCIPEGTKFDTLWQLVEYLKLKADGLIYCLKEACPNSSASNASGAAAPTLPAHPSTLTHPQRRIDTLNSDGYTPEPARITSPDKPRPMPMDTSVYESPYSDPEELKDKKLFLKRDNLLIADIELGCGNFGSVRQGVYRMRKKQIDVAIKVLKQGTEKADTEEMMREAQIMHQLDNPYIVRLIGVCQAEALMLVMEMAGGGPLHKFLVGKREEIPVSNVAELLHQVSMGMKYLEEKNFVHRDLAARNVLLVNRHYAKISDFGLSKALGADDSYYTARSAGKWPLKWYAPECINFRKFSSRSDVWSYGVTMWEALSYGQKPYKKMKGPEVMAFIEQGKRMECPPECPPELYALMSDCWIYKWEDRPDFLTVEQRMRACYYSLASKVEGPPGSTQKAEAACA

Variants of: B1
Conditions: with ubs3b_mouse Ubash3b

| Variant | effect of a mutation on the interaction |
| --- | --- |
| Y319F | disrupting interaction |
